Results: US7262005
code Z = not defined here; fmk = not defined here

Experiments:
[1] = target: 2XUb-DEVD-Bla fusion protein, P62593
caspases = assay: cell-based or functional assay

Sequence of 2XUb-DEVD-Bla fusion protein, P62593 (P62593 whole entry, looked up, the tested form may be a part): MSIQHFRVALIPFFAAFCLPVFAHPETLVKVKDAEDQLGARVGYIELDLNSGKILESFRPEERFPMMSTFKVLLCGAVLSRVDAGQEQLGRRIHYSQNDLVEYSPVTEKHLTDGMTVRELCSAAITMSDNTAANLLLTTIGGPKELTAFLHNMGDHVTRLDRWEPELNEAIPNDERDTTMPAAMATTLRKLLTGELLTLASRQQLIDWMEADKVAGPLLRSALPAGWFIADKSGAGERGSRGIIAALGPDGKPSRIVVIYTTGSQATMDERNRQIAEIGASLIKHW

| Binder | in vitro cleavage of the 35S-labeled fusion by 25 nM purified caspase-3, SDS-PAGE and autoradiography [1] | 460/530 emission ratio, + αFas/+ inh/+ chx, Jurkat cells expressing 2XUb-DEVD-Bla, 10 µM Z-VAD-fmk (460/530 emission ratio) (caspases) | IC50 of inhibition of anti-Fas-induced caspase activity in Jurkat cells expressing 2XUb-DEVD-Bla (β-lactamase activity, CCF2 460/530 nm ratio) (caspases) [µM] |
| --- | --- | --- | --- |
| purified recombinant caspase-3 (protein) SGISLDNSYKMDYPEMGLCIIINNKNFHKSTGMTSRSGTDVDAANLRETFRNLKYEVRNKNDLTREEIVELMRDVSKEDHSKRSSFVCVLLSHGEEGIIFGTNGPVDLKKITNFFRGDRCRSLTGKPKLFIIQACRGTELDCGIETDSGVDDDMACHKIPVEADFLYAYSTAPGYYSWRNSKDGSWFIQSLCAMLKQYADKLEFMHILTRVNRKVATEFESFSFDATFHAKKQIPCIVSMLTKELYFYH | over 90% cleavage within 5 minutes | – | – |
| {code Z}-Val-Ala-Asp-fmk (reading uncertain; also: printed as Z-VAD-fmk) [Z-VAD-fmk] | – | 0.08 | 5 |
